Assay results published in the Human Domainome abundance scans (Beltran et al. 2025).
± gives the uncertainty stated by the source.

B1: Intersectin-2, residues 1129 to 1183; numbered along this chain, Q9NZM3 (parent)
chain: VCQVIAMYDYAANNEDELSFSKGQLINVMNKDDPDWWQGEINGVTGLFPSNYVKM

Variants of: B1
Test: abundance fitness (aPCA) (normalised: wild type 0, dead -1); higher = more abundant; growth selection in yeast, the domain comes from the species named
Conditions: Homo sapiens

Variant	abundance fitness
VCQVIAMYDYAANNEDELSFSKGQLINVMNKDDPDWWQGEINGVTGLFPSNYLKM [V53L]	-0.623 ± 0.042
VCQVIAMYDYAANNEDELSFSKGQLINVMNKDDPDWWQGEINGVTGLFPSNYRKM [V53R]	-0.703 ± 0.05
VCQVIAMYDYAANNEDELSFSKGQLINVMNKDDPDWWQGEINGVTGLFPSNYTKM [V53T]	0.03 ± 0.04
VCQVIAMYDYAANNEDELSFSKGQLINVMNKDDPDWWQGEINGVTGLFPSNYEKM [V53E]	-0.666 ± 0.11
VCQVIAMYDYAANNEDELSFSKGQLINVMNKDDPDWWQGEINGVTGLFPSNYIKM [V53I]	0.065 ± 0.058
VCQVIAMYDYAANNEDELSFSKGQLINVMNKDDPDWWQGEINGVTGLFPSNYPKM [V53P]	-0.905 ± 0.047
VCQVIAMYDYAANNEDELSFSKGQLINVMNKDDPDWWQGEINGVTGLFPSNYCKM [V53C]	-0.054 ± 0.034
VCQVIAMYDYAANNEDELSFSKGQLINVMNKDDPDWWQGEINGVTGLFPSNYMKM [V53M]	-0.379 ± 0.086
VCQVIAMYDYAANNEDELSFSKGQLINVMNKDDPDWWQGEINGVTGLFPSNYQKM [V53Q]	-0.564 ± 0.03
VCQVIAMYDYAANNEDELSFSKGQLINVMNKDDPDWWQGEINGVTGLFPSNYAKM [V53A]	-0.071 ± 0.045
VCQVIAMYDYAANNEDELSFSKGQLINVMNKDDPDWWQGEINGVTGLFPSNYKKM [V53K]	-0.902 ± 0.097
VCQVIAMYDYAANNEDELSFSKGQLINVMNKDDPDWWQGEINGVTGLFPSNYHKM [V53H]	-0.477 ± 0.11
VCQVIAMYDYAANNEDELSFSKGQLINVMNKDDPDWWQGEINGVTGLFPSNYWKM [V53W]	-1.11 ± 0.23
VCQVIAMYDYAANNEDELSFSKGQLINVMNKDDPDWWQGEINGVTGLFPSNYGKM [V53G]	-0.116 ± 0.036
VCQVIAMYDYAANNEDELSFSKGQLINVMNKDDPDWWQGEINGVTGLFPSNTVKM [Y52T]	-0.065 ± 0.054
VCQVIAMYDYAANNEDELSFSKGQLINVMNKDDPDWWQGEINGVTGLFPSNWVKM [Y52W]	-0.139 ± 0.045
VCQVIAMYDYAANNEDELSFSKGQLINVMNKDDPDWWQGEINGVTGLFPSNHVKM [Y52H]	0.009 ± 0.076
VCQVIAMYDYAANNEDELSFSKGQLINVMNKDDPDWWQGEINGVTGLFPSNIVKM [Y52I]	-0.023 ± 0.071
VCQVIAMYDYAANNEDELSFSKGQLINVMNKDDPDWWQGEINGVTGLFPSNFVKM [Y52F]	0.15 ± 0.078
VCQVIAMYDYAANNEDELSFSKGQLINVMNKDDPDWWQGEINGVTGLFPSNLVKM [Y52L]	0.037 ± 0.045
VCQVIAMYDYAANNEDELSFSKGQLINVMNKDDPDWWQGEINGVTGLFPSNNVKM [Y52N]	-0.107 ± 0.071
VCQVIAMYDYAANNEDELSFSKGQLINVMNKDDPDWWQGEINGVTGLFPSNKVKM [Y52K]	0.082 ± 0.051
VCQVIAMYDYAANNEDELSFSKGQLINVMNKDDPDWWQGEINGVTGLFPSNGVKM [Y52G]	-0.122 ± 0.028
VCQVIAMYDYAANNEDELSFSKGQLINVMNKDDPDWWQGEINGVTGLFPSNDVKM [Y52D]	-0.575 ± 0.096

Variant	abundance fitness
VCQVIAMYDYAANNEDELSFSKGQLINVMNKDDPDWWQGEINGVTGLFPSNEVKM [Y52E]	-0.192 ± 0.051
VCQVIAMYDYAANNEDELSFSKGQLINVMNKDDPDWWQGEINGVTGLFPSNPVKM [Y52P]	-0.544 ± 0.083
VCQVIAMYDYAANNEDELSFSKGQLINVMNKDDPDWWQGEINGVTGLFPSNRVKM [Y52R]	-0.019 ± 0.038
VCQVIAMYDYAANNEDELSFSKGQLINVMNKDDPDWWQGEINGVTGLFPSNSVKM [Y52S]	-0.066 ± 0.028
VCQVIAMYDYAANNEDELSFSKGQLINVMNKDDPDWWQGEINGVTGLFPSNMVKM [Y52M]	-0.002 ± 0.058
VCQVIAMYDYAANNEDELSFSKGQLINVMNKDDPDWWQGEINGVTGLFPSNCVKM [Y52C]	-0.042 ± 0.034
VCQVIAMYDYAANNEDELSFSKGQLINVMNKDDPDWWQGEINGVTGLFPSPYVKM [N51P]	-0.038 ± 0.057
VCQVIAMYDYAANNEDELSFSKGQLINVMNKDDPDWWQGEINGVTGLFPSRYVKM [N51R]	-0.026 ± 0.039
VCQVIAMYDYAANNEDELSFSKGQLINVMNKDDPDWWQGEINGVTGLFPSTYVKM [N51T]	-0.034 ± 0.042
VCQVIAMYDYAANNEDELSFSKGQLINVMNKDDPDWWQGEINGVTGLFPSHYVKM [N51H]	-0.025 ± 0.029
VCQVIAMYDYAANNEDELSFSKGQLINVMNKDDPDWWQGEINGVTGLFPSQYVKM [N51Q]	-0.081 ± 0.062
VCQVIAMYDYAANNEDELSFSKGQLINVMNKDDPDWWQGEINGVTGLFPSGYVKM [N51G]	-0.021 ± 0.031
VCQVIAMYDYAANNEDELSFSKGQLINVMNKDDPDWWQGEINGVTGLFPSFYVKM [N51F]	-0.141 ± 0.064
VCQVIAMYDYAANNEDELSFSKGQLINVMNKDDPDWWQGEINGVTGLFPSYYVKM [N51Y]	-0.067 ± 0.04
VCQVIAMYDYAANNEDELSFSKGQLINVMNKDDPDWWQGEINGVTGLFPSWYVKM [N51W]	-0.121 ± 0.031
VCQVIAMYDYAANNEDELSFSKGQLINVMNKDDPDWWQGEINGVTGLFPSLYVKM [N51L]	-0.149 ± 0.043
VCQVIAMYDYAANNEDELSFSKGQLINVMNKDDPDWWQGEINGVTGLFPSIYVKM [N51I]	-0.077 ± 0.032
VCQVIAMYDYAANNEDELSFSKGQLINVMNKDDPDWWQGEINGVTGLFPSMYVKM [N51M]	-0.071 ± 0.032
VCQVIAMYDYAANNEDELSFSKGQLINVMNKDDPDWWQGEINGVTGLFPSSYVKM [N51S]	-0.02 ± 0.028
VCQVIAMYDYAANNEDELSFSKGQLINVMNKDDPDWWQGEINGVTGLFPSNYVDM [K54D]	-0.05 ± 0.032
VCQVIAMYDYAANNEDELSFSKGQLINVMNKDDPDWWQGEINGVTGLFPSNYVCM [K54C]	-0.12 ± 0.053
VCQVIAMYDYAANNEDELSFSKGQLINVMNKDDPDWWQGEINGVTGLFPSNYVAM [K54A]	-0.119 ± 0.028
VCQVIAMYDYAANNEDELSFSKGQLINVMNKDDPDWWQGEINGVTGLFPSNYVFM [K54F]	-0.148 ± 0.046
VCQVIAMYDYAANNEDELSFSKGQLINVMNKDDPDWWQGEINGVTGLFPSNYVEM [K54E]	-0.032 ± 0.054
